Patent publication US20260137781A1 (University of California, published 2026)

How the values were obtained:
[1] = target: Integrin beta-2/Integrin alpha-M recombinant protein complex (R and D 4047-AM) (UniProt P11215 17-1105); assay: phage display selection on immobilised complex, clones evaluated by phage ELISA
Method: Briefly, Integrin-beta-2 recombinant protein complexes were immobilized on Maxisorp Immuno plates (ThermoFisher, #12-565-135) and used for positive binding selections with library phage pools that were first exposed to neutravidin coated wells to deplete nonspecific binders. After four rounds of binding selections, clonal phage was prepared and evaluated by phage ELISA and sequencing as described (PMID: 23219464).

[2] = target: T1, recombinant Itgβ2 (Integrin beta-2 complex, alpha chain not stated for this result); assay: BLI (Octet), antibody captured on AHQ biosensors, Integrin beta-2 complex in solution, 1:1 fit
T1 construct: Bought R&D Systems heterodimer; also called Integrin-beta 2 complexes
Method: (§1) To determine the binding kinetic parameters of the antibodies, BLI experiments were performed on an Octet HTX instrument (Sartorius) at 1000 rpm and 25° C. All proteins were diluted in an assay buffer (PBS, 1% BSA, 0.05% Tween 20). Test and control antibodies at a concentration of 2 μg/ml were first captured on AHQ biosensors to achieve the binding signals of 0.8-1.3 nm. Unoccupied Fc-binding sites on the antibody-coated sensors were subsequently quenched by 20 μg/mL of the Fc protein. After equilibration with the assay buffer, the biosensors were then dipped for 600 s into wells containing 5-fold serial dilution of Integrin-beta 2 complexes (association phase), followed by a transfer back into an assay buffer for additional 600 s (dissociation phase). Assay buffer alone served as a negative control. Binding response data were reference subtracted and were globally fitted with 1:1 binding model using ForteBio's Octet Systems software 9.0.

[3] = target: T2, Integrin beta-2/Integrin alpha-L recombinant protein complex (R and D 3868-AV) (UniProt P20701 26-1090); assay: BLI (Octet), antibody captured on AHQ biosensor, integrin complex in solution at 300/60/12 nM; the legend paragraph 15 names Itgal/Itgb2 as the antigen
T2 construct: Bought complex; also called Itgal/Itgβ2; ItgaL/Itgβ2
Method: as §1

B1: Antibody D3-7065 (antibody, V domains shown)
VH: EVQLVESGGGLVQPGGSLRLSCAASGFTISYYYMHWVRQAPGKGLEWVASISSSSGYTYYADSVKGRFTISADTSKNTAYLQMNSLRAEDTAVYYCARGAMDYWGQGTLVTVSS
VL: DIQMTQSPSSLSASVGDRVTITCRASQSVSSAVAWYQQKPGKAPKLLIYSASSLYSGVPSRFSGSRSGTDFTLTISSLQPEDFATYYCQQFSSGSWAPITFGQGTKVEIK
notes: It was purified on protein A and captured on AHQ biosensors for BLI
For B1, the binding result [1] was “binds”, the Kd [2] was 1.56 nM and the binding result [3] was “binds”.
